Data as given in patent US20070286806A1, “Methods and Compositions for Modulating a Steroid Receptor” (Mount Sinai Hospital, priority 2004, published 2007).

Test system: G5-Luc reporter
Assay: Mammalian two-hybrid system with G5-Luc reporter
Format: cell-based, Syrian hamster
Conditions: SHM cells
Experimental: FIG. 2. PSF interacts with PR in vivo. (A) 293T cells were transient transfected with an expression vector for PRB and/or His-PSF for 18 hours, followed by lysis in NETN buffer with NaCl at 150 mM. Whole cell lysate (WCL) was incubated with PR antibody (C-20, Santa Cruz) or anti-His tag antibody (H-15, Santa Cruz), using protein A/G-sepharose as an absorbent. Resins were washed with NETN containing 100 mM NaCl, and bound proteins were detected by western blotting with antibodies to PR (C-20) or His-PSF (H-15). (B) Western blots of PSF (left) and PR (right) in immunoprecipitates of control mouse IgG or mouse anti-PR (AB52) or anti-PSF (B92) antibody from extracts of T47D cells. […] Luciferase activity was measured and normalized by β-galatosidase activity. […]
For immunoprecipitation of the endogenous PR and PSF, T47D cells cultured in 150 mm dishes were lysed in 800 μl NETN buffer containing 150 mM NaCl plus protease inhibitor cocktail. […] Gels were treated with Enhancer (NEN, Boston, US) dried and analyzed by autoradiography. • Cell culture and transient transfection: SHM cells and 293T cells were maintained in DMEM plus 5% FCS (Sigma) as described before (22). […] Luciferase activity was determined by using the luciferin reagent (Promega) according to manufacture's protocol. […]

B1: pM-PSF: PSF fused to C-terminus of Gal4-DBD in pM vector (protein)
chain: MKLLSSIEQACDICRLKKLKCSKEKPKCAKCLKNNWECRYSPKTKRSPLTRAHLTEVESRLERLEQLFLLIFPREDLDMILKMDSLQDIKALLTGLFVQDNVNKDAVTDRLASVETDMPLTLRQHRISATSSSEESSNKGQRQLTVSMSRDRFRSRGGGGGGFHRRGGGGGRGGLHDFRSPPPGMGLNQNRGPMGPGPGQSGPKPPIPPPPPHQQQQQPPPQQPPPQQPPPHQPPPHPQPHQQQQPPPPPQDSSKPVVAQGPGPAPGVGSAPPASSSAPPATPPTSGAPPGSGPGPTPTPPPAVTSAPPGAPPPTPPSSGVPTTPPQAGGPPPPPAAVPGPGPGPKQGPGPGGPKGGKMPGGPKPGGGPGLSTPGGHPKPPHRGGGEPRGGRQHHPPYHQQHHQGPPPGGPGGRSEEKISDSEGFKANLSLLRRPGEKTYTQRCRLFVGNLPADITEDEFKRLFAKYGEPGEVFINKGKGFGFIKLESRALAEIAKAELDDTPMRGRQLRVRFATHAAALSVRNLSPYVSNELLEEAFSQFGPIERAVVIVDDRGRSTGKGIVEFASKPAARKAFERCSEGVFLLTTTPRPVIVEPLEQLDDEDGLPEKLAQKNPMYQKERETPPRFAQHGTFEYEYSQRWKSLDEMEKQQREQVEKNMKDAKDKLESEMEDAYHEHQANLLRQDLMRRQEELRRMEELHNQEMQKRKEMQLRQEEERRRREEEMMIRQREMEEQMRRQREESYSRMGYMDPRERDMRMGGGGAMNMGDPYGSGGQKFPPLGGGGGIGYEANPGVPPATMSGSMMGSDMRTERFGQGGAGPVGGQGPRGMGPGTPAGYGRGREEYEGPNKKPRF
B1 was tested, and the “luciferase activity on co-transfection with VP16-PRA and VP16-PRB” value (G5-Luc, ligand-independent) was “dramatic increase of luciferase activity” and the “reduction in luciferase activity compared to pM empty vector” value (co-transfected with G5-Luc) was 70%.
